Here are results for four molecules from US20220275088A1 (published 2022).

For one experiment, the target named is Cyno PD1. Description: flow cytometry. For orientation: A flow cytometer gives signals particle by particle.
Experiment [1] concerns the target T1, soluble PD-1 (biotinylated PD-1; expi293 expressed soluble PD1-avi) (UniProt Q15116 25-170, biotinylated (Avidity's biotinylation kit, avi tag) where loaded on SA sensors or used to stain yeast). The experiment in a line: ELISA; constant antigen coating. (An ELISA detects its analyte on a solid surface through an enzyme-linked reagent.)
Experiment [2] addresses T1, soluble PD-1 (biotinylated PD-1; …). Description: ELISA; variable antigen coating.
The target is the same in experiment [3]. The experiment in a line: yeast display flow cytometry.
Experiment [4] addresses human PD-1 on cells (transfected Expi293 cells, PHA-cultured T cells, cells of the Promega PD1-PDL1 bioassay, … (UniProt Q15116 25-288)). The experiment in a line: flow cytometry.

T1 sequence (Q15116 25-170): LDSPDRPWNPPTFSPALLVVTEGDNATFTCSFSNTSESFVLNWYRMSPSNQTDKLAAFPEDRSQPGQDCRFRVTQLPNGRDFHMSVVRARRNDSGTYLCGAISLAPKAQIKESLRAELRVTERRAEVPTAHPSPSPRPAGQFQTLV
Sequence of human PD-1 on cells (transfected Expi293 cells, PHA-cultured T cells, cells of the Promega PD1-PDL1 bioassay, … (Q15116 25-288): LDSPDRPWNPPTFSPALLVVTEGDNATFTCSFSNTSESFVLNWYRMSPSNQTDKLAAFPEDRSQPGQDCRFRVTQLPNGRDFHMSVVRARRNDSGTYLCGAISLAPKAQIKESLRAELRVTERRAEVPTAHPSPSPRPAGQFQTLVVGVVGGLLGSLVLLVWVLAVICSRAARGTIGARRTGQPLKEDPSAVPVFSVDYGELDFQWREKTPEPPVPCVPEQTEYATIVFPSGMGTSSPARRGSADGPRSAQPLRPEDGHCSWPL

B1: P4#B3 (Fc fusion)
VH: QVQLVQSGGGLVQPGRSLRLSCAASGFTFDDYAMHWVRQAPGKGLEWVSGISWNSGSIGYADSVKGRFTVSRDNAKNSLYLQMNSLRAEDTAVYYCASDYGDKYYYYGMDVWGKGTTVTVSS
VL: QPGLTQPPSASGTPGQRVTISCSGSSSNIGSNTVNWYQQFPGKAPKLLIFNDNQRPSGVPDRFSASKSGTSASLAISGLQSEDEADYYCAAWDGGLNGRGVFGGGTKLTVL
The molecule B1 gave a concentration giving a half-maximal response (EC50) in the experiment with Cyno PD1 of 0.072 µg/mL.

B2: P4-B3 IgG1 wild type monomer (antibody, V domains shown)
VH: QVQLVQSGGGLVQPGRSLRLSCAASGFTFDDYAMHWVRQAPGKGLEWVSGISWNSGSIGYADSVKGRFTVSRDNAKNSLYLQMNSLRAEDTAVYYCASDYGDKYYYYGMDVWGKGTTVTVSS
VL: QPGLTQPPSASGTPGQRVTISCSGSSSNIGSNTVNWYQQFPGKAPKLLIFNDNQRPSGVPDRFSASKSGTSASLAISGLQSEDEADYYCAAWDGGLNGRGVFGGGTKLTVLG
Take B2: the results for the EC50 in experiment [1] and in experiment [2] were 0.0407 µg/mL and 0.514 µg/mL, respectively.

B3: P4-B3 scFv (scFv, V domains shown)
VH: QVQLVQSGGGLVQPGRSLRLSCAASGFTFDDYAMHWVRQAPGKGLEWVSGISWNSGSIGYADSVKGRFTVSRDNAKNSLYLQMNSLRAEDTAVYYCASDYGDKYYYYGMDVWGKGTTVTVSS
VL: QPGLTQPPSASGTPGQRVTISCSGSSSNIGSNTVNWYQQFPGKAPKLLIFNDNQRPSGVPDRFSASKSGTSASLAISGLQSEDEADYYCAAWDGGLNGRGVFGGGTKLTVL
On to B3, for which the 50% effective concentration (EC50) in experiment [3] was determined as 101 nM.

B4: P4-B3 minibody (scFv-Fc) (Fc fusion)
VH: QVQLVQSGGGLVQPGRSLRLSCAASGFTFDDYAMHWVRQAPGKGLEWVSGISWNSGSIGYADSVKGRFTVSRDNAKNSLYLQMNSLRAEDTAVYYCASDYGDKYYYYGMDVWGKGTTVTVSS
VL: QPGLTQPPSASGTPGQRVTISCSGSSSNIGSNTVNWYQQFPGKAPKLLIFNDNQRPSGVPDRFSASKSGTSASLAISGLQSEDEADYYCAAWDGGLNGRGVFGGGTKLTVL
Molecule B4 had an EC50 in experiment [4] of 0.097 µg/mL.

By EC50 is commonly meant the concentration needed to bring the measured effect to its halfway point. A higher EC50 goes with weaker potency.
